The DeepSol protein solubility set

Assay: soluble on expression in E. coli; label from the status in PepcDB or PDB records

Question: For “MADVLTELPGVGPSTADKLIEGGYLDFMKIATATIGELTDIEGISEKAAAKMIMAARDLCDLGFKSGVELLKQRQSVWRLSTGSTELDTVLAGGIESQSVTEFAGMFGSGKTQIMHQTCVNLQMREKIFADLEGVVEEELEAPKAVYIDTEGTFRPERVVQMAEGAGIDGQTVLDNTFVARAYNSDMQMLFAEKIEDLIKGGNNIKLVIIDSLTSTFRNEFTGRGKLAERQQKLGRHMATLNKLADLYNCIVLVTNQVAAKPDAYFGVAEQAIGGHVVGHAATFRFFLRKSKGDKRVAKLYDSPHLPDSEAVFRITEKGIQD”, which “soluble on expression in E. coli” value is on record?
Answer: soluble

Question: Which “soluble on expression in E. coli” value does the source give for “MADVPDQVDINVNVVEKPTGAIMFGAGYSDREGIILNGSIAQNNILGTGNFLSLQVNTGSVNKVISASFNNPYYTINGVSLGLEAFKRDINTRSLSSVGMFNTDTTGANIRFGIPVAENDIVSLGLGYEHTKIDLRDDSPQRFKDFVDQFGKTSNNLPITLSWARDRRNSAIWTTSGMTQRLFGEFGLPFGDLNYYKVSYEQRWFFPVTKMFTLMLNGEVGVGDGYSDKPLPFFKNFFAGGFNSVRGYNINTLGPRDSDDRVLGGSKRIVGNIEVLFPVPFMKEDKSVRLSAFADGGTIVNSFSGLGFDDFRYSAGLAATWISPMGPLKFSVAQPLNNQSGDKLQRFQFQFGQTFLEHHHHHH” here?
Answer: soluble

Question: For “MAEAGIAHTALPLEAIPEKSAGKGEGLTLIIYMLELALHAIPENLKKTVYSKVELMAPRSDGVLLFYGLCGNVLGKIEEDFRALDCRVSILKEENGEIVDDCIGAVLGGRGHYLEALKSCRGAGTFFLTPMWAVNWREMIRTAGLSRNPDDIEMSKFVFDYAGYKRVARVNTGLAYEKDFDARVKEFSTLFEFEVTDLEGTLQLVENCYAKTKASMLEACPHSQTLEHHHHHH”, which “soluble on expression in E. coli” value is on record?
Answer: not soluble

Question: With “MAEGEDVGWWRSWLQQSYQAVKEKSSEALEFMKRDLTEFTQVVQHDTACTIAATASVVKEKLATEGSSGATEKMKKGLSDFLGVISDTFAPSPDKTIDCDVITLMGTPSGTAEPYDGTKARLYSLQSDPATYCNEPDGPPELFDAWLSQFCLEEKKGGISELLVGSPSIRALYTKMVPAAVSHSEFWHRYFYKVHQLEQEQARRDALKQRAEQSISEEPGWEEEEEELMGISPISPKEAKVPVAKISTFPEGEPGPQSPCEENLVTSVEPPAEVTPSESSESISLVTQIANPATAPEARVLPKDLSQKLLEASLEEQGLAVDVGETGPSPPIHSKPLTPAGHTGGPEPRPPARVETLREEAPTDLRVFELNSDSGKSTPSNNGKKGSSTDISEDWEKDFDLDMTEEEVQMALSKVDASGELEDVEWEDWE” as the sequence, how does the “soluble on expression in E. coli” value read?
Answer: soluble

Question: For “MAEHDFETISSETLHTGAIFALRRDQVRMPGGGIVTREVVEHFGAVAIVAMDDNGNIPMVYQYRHTYGRRLWELPAGLLDVAGEPPHLTAARELREEVGLQASTWQVLVDLDTAPGFSDESVRVYLATGLREVGRPEAHHEEADMTMGWYPIAEAARRVLRGEIVNSIAIAGVLAVHAVTTGFAQPRPLDTEWIDRPTAFAARRAER”, which “soluble on expression in E. coli” value is on record?
Answer: soluble

Question: Which “soluble on expression in E. coli” value does the source give for “MAEKKKDEKETKETENFILKLSAETVLFSNAKLGDEVTTTVLKMTNPTTDKCAFKVKCTSNDLFKIKTPVGYIKPDETIDIPLCHNPGKAIPENNKQYFAFYYIKTKEDGPARDAWKNHKPDGMKRIYISFKKGDEKGDEKKDEKKEEKKEEKKEEKKEDKKDDKKEAKKEEKKEEKKEEKKEEKKEEKKEEKKEEKNDENKEEKKEEKKDEKKEEKKVEEAKK” here?
Answer: soluble

Question: With “MAELACFVSFSLTEDKVVWYPINKKAVQTMLCAKVEKDQRSNYYDTILYGVAPPPEFRNRFKTNERYGLDYESDQYTELVNLLADTLNMVSMPTEKFQFDIVKTVVQVRHLENLLCRIKDVNDILNANVKLRVKAVMIACNLVNETETTPLTESNDIVYQDSYFTITKLDYSNHKLLPLMADEYKITINTKTDIPDRNQTAFAAYIRYNFNKFAAISHGKRHWRLVLHSQLMSHAERLDRKIKSDKKHGRQFSYDDGDMAFVHPGWKTCIGQLCGGTTFEVAKTSLYSIKPSKTVRTATNKIESDLISMVGN” as the sequence, how does the “soluble on expression in E. coli” value read?
Answer: soluble

Question: Which “soluble on expression in E. coli” value does the source give for “MAELRETLERLASFRPQNYYVSTLYLRLMPEDRQDNKYLRVYKDLVKKKEKDLENLNLDKEVLDSIRGDIKNIQDFLSDPKNLYNCRGIAIFSCSKLGLFEYVKLPYVYRNRLMFSPDPLVREIAAIDEEFGRVAVLLLDRKHIRYFLMDITGIEEKLDFLEPMTTRAHRFHSGGALLKGAEGTFQYRMPARGAAPNVVQHGMGEWRFHMRLREEWHRILKLASDALFEEWKRIHFDKLIIGGFIEEGLREIENFLHPYVKEKLVGYIEITPEEATPHQVWEKALDLLWQKDREQEKEIIKELEELKGWGLAVNGTSEVLEMLAIGNVRTLILPEDFEKPGYLCPQSHLAFLKPECPLPEEKPIPVSDVVDEALEEALDQRATIEVIIDKELQKKVDGLAAFLRFKL” here?
Answer: not soluble

Question: With “MAELVPFAVPIESDKTLLVWELSSGPTAEALHHSLFTAFSQFGLLYSVRVFPNAAVAHPGFYAVIKFYSARAAHRAQKACDRKQLFQKSPVKVRLGTRHKAVQHQALALNSSKCQELANYYFGFNGCSKRIIKLQELSDLEERENEDSMVPLPKQSLKFFCALEVVLPSCDCRSPGIGLVEEPMDKVEEGPLSFLMKRKTAQKLAIQKALSDAFQKLLIVVLESGKIAVEYRPSEDIVGVRCEEELHGLIQVPCSPWKQYGQEEEGYLSDFSLEEEEFRLPELD” as the sequence, how does the “soluble on expression in E. coli” value read?
Answer: soluble

Question: Which “soluble on expression in E. coli” value does the source give for “MAENAAPGLISELKLAVPWGHIAAKAWGSLQGPPVLCLHGWLDNASSFDRLIPLLPQDFYYVAMDFGGHGLSSHYSPGVPYYLQTFVSEIRRVVAALKWNRFSILGHSFGGVVGGMFFCTFPEMVDKLILLDTPLFLLESDEMENLLTYKRRAIEHVLQVEASQEPSHVFSLKQLLQRQRTALTSSAGSCVRIPSGSCRPMSC” here?
Answer: soluble

Question: For “MAENDGETIVPDEQCNLTASTPMKSSGLEQVESPKERKTSMVECDDEGNPSSGTPDESPKQLTPHSIPPRRRRSPRRPEVSASRLPLKVLNQIFQYLPLKDLRSAMLTCHSWNNALSMEDSDIWQYLLGKKLPEAAVSDPFLLAELGSAKKKLRAWYFAWNTSDISRNNYIRTNGFTVHRQPVAQSTDGVRGKRGISKGVHAFDITWDGPLGTVAVVGIATKHAALHCVGYVALLGSDDQSWGWNLVDNVLMHNGAQLGVYPKMNNPPKYEVGDKIRLIIDCDTHVAYFERNSEFLGIAFNHIPPLRLYPAVCAVYGNTEVTMVYVGSPQMG”, which “soluble on expression in E. coli” value is on record?
Answer: not soluble

Question: With “MAENFQLPYLSLQNEKVDMVFDLFNKTIRNGEKVTFAFSGGKDSTTLAILFYEWLKIRHDIECTITLLHNDTSSEIDPMENWARNFMTSYKTEIEDITEGRVKINIDIRTPKVIDTFYWRMLIRGYPAPSFNFRWCVHLLKEKPANLDSIEETMFTGLREAESSERRILMRKKYGNSCSASPGGCMAYYYSTEGKGNKVAPMRDWTDGDVWSFLTLYRNTGGINISPIFMLYPNPKVRYGCWHCTLASVQWGLQSLGGGLEYFEAVRILYRKFSDLPYLRIKKNTGYSKLGPLNAAGRALMLKSIALAEDLSNVKLYGLDINLLEGKSIRDILFNLDPKEATALIKKYDPNIPRFRYIPIDKIRNIQKYKELALRALIDVKRNCANDKAYILLDTKLENPLITLLNRIEDLLS” as the sequence, how does the “soluble on expression in E. coli” value read?
Answer: not soluble

Question: For “MAENIPLRVQFKRMKAAEWASSDVVLLEGEIGFETDTGFAKFGDGQNTFSKLKYLTGPKGPKGDTGLQGKTGGTGSRGPAGKPGTTDYDQLQNKPDLGAFAQKEETNSKITKLESSKADKNAVYLKAESNAKLDEKLNLKGGVMTGQLQFKPNSGIKPSSSVGGAINIDMSKSEGAAMVMYTNKDTTDGPLMILRSNKDTFDQSVQFVDYKGTTNAVNIVMRQPTTPNFSSALNITSANEGGSAMQIRGVEKALGTLKITHENPSVDKEYDKNAAALSIDIVKKQKGGKGTAAQGIYINSTSGTTGKLLRIRNLNDDKFYVKPDGGFYAKETSQIDGNLKLKDPIANDHAATKAYVDGEVEKLKALLAAKQM”, which “soluble on expression in E. coli” value is on record?
Answer: not soluble

Question: Which “soluble on expression in E. coli” value does the source give for “MAEQSDEAVKYYTLEEIQKHNHSKSTWLILHHKVYDLTKFLEEHPGGEEVLREQAGGDATENFEDVGHSTDAREMSKTFIIGELHPDDRPKLNKPPEP” here?
Answer: soluble

Question: Which “soluble on expression in E. coli” value does the source give for “MAESYEEWKSFALKLDEETGAQEWKFDNSSPYFDAELISYRYTLLKRYRQQHRTLDLIYLLKEGLTYDIANIGHPMLFAATHVGTKKLIEDYIEEVSQSLAYIASSECITFQRKEKIEFFENCEKAYGQPALMFSGGATLGLFHTGVCKALIEQDLMPKVLSGSSAGAIMTGMLGISASEDIQNLLNGEQFFSDAFHFRKLRELIKGNGGIADVHYLKKFLIENLGDLTFEEAFKKSGLNINVAVAPYDATENPRIMNAIMTPNVLVWSAVLASCAVPVLFPPVRLTSKRYDGEHTPYMANTKWVDGSVRSDFPQERMARLYNLNYTIASQVNPHVVPFMQDDARRFRKDVLSWPERILRRQGKVLSMGLMDFTRQRLGAISPVRRLLDHGYGVVGQRYYGDVNIIAKYSLKHYAYTLQNPRPHLFKRLQREGERATWPKISSIETHARIGKTIQHCLEVLRFEEKKLEHHHHHH” here?
Answer: not soluble

Question: Which “soluble on expression in E. coli” value does the source give for “MAETKIVVGPQPFSVGEEYPWLAERDEDGAVVTFTGKVRNHNLGDSVNALTLEHYPGMTEKALAEIVDEARNRWPLGRVTVIHRIGELWPGDEIVFVGVTSAHRSSAFEAGQFIMDYLKTRAPFWKREATPEGDRWVEARESDQQAAKRW” here?
Answer: soluble

Question: Which “soluble on expression in E. coli” value does the source give for “MAEVITVKQTNMENIYECEFNDGSFRLCTRNLVPNFNVYGERLIKYEGVEYREWNAFRSKLAGAILKGLKTNPIRKGTKVLYLGAASGTTISHVSDIIELNGKAYGVEFSPRVVRELLLVAQRRPNIFPLLADARFPQSYKSVVENVDVLYVDIAQPDQTDIAIYNAKFFLKVNGDMLLVIKARSIDVTKDPKEIYKTEVEKLENSNFETIQIINLDPYDKDHAIVLSKYKG” here?
Answer: soluble

Question: For “MAFEGLSERLQATMQKMRGKGKLTEADIKIMMREVRLALLEADVNFKVVKEFIKTVSERALGSDVMQSLTPGQQVIKIVQDELTQLMGGENTSINMSNKPPTVVMMVGLQGAGKTTTAGKLALLMRKKYNKKPMLVAADIYRPAAINQLQTVGKQIDIPVYSEGDQVKPQQIVTNALKHAKEEHLDFVIIDTAGRLHIDEALMNELKEVKDIAKPNEIMLVVDSMTGQDAVNVAESFDDQLDVTGVTLTKLDGDTRGGAALSIRSVTQKPIKFVGMSEKLDGLELFHPERMASRILGMGDVLSLIEKAQQDVDQEKAKDLEKKMRESSFTLDDFLEQLDQVKNLGPLDDIMKMIPGMNKMKGLDKLNMSEKQIDHIKAIIQSMTPAERNNPDTLNVSRKKRIAKGSGRSLQEVNRLMKQFNDMKKMMKQFTGGGKGKKGKRNQMQNMLKGMNLPF”, which “soluble on expression in E. coli” value is on record?
Answer: not soluble

Question: Which “soluble on expression in E. coli” value does the source give for “MAFNTRANAEKYLATCYNFVPAAANLDHNSGLICGGEMWYLKPESHYYKNITSFNIARGMQNSNDPLLNYWDGGQGGYNIFRGIHECNIFIDNIDRVPDMRMEEKNKWKAEVMTLKAYYIYYLMLHYGPIPLLKENISVEADLDMMQLERETINDIVTYTTDLLDEAMNIPSGLTFNVTSPRTELGRITLPIAKAIKAKLLILAASPLFNGNTMYAEFVNSEGIPFFDQEYKKEKWEAAAAACLDAINTAHEAGASLYKFDEKLNYTPSSTLQQELTLRNTITGRFNSEIIWALGSNATDGIQNLCQAHLTSYSLGNRMIRSCSQLVPSLEIVEQFYTANGVPMDEDKDYEYENRYKLTTTPEDDPIHFTPNYTTIKMHLNREPRFYAYIGFDGGKWFSIECCNDNETSSYPIKSKKGDIAGVSDELYSPTGYFTKKLVSYQNVNTSATNINYVYSFPIIRLSDLYLLYAEALNELNETPTTDVYYYVQQVRNKAGLDEGGSLVNTWRNHSNRPDKPTTQRGMREIIQKERMIELAFEGHRYHDVRRWKLGSTYLNTQIKGWSVLEQDPEYFYNVRVLFTRKFMPRDYLWPIKTNSINRNPKLVQNPQW” here?
Answer: not soluble
